Measured values as given in the nanobody polyreactivity screen of Harvey et al. (2022).

Experiment: yeast display, Sf9 membrane polyspecificity reagent, FACS + sequencing; frameworks hold sequencing errors
Procedure, shortened: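 After 36–48 hours of galactose induction, yeast (Saccharomyces cerevisiae BJ5465) displaying a synthetic nanobody library were stained at 4 °C for 1 hour with 10% biotinylated, detergent-solubilized Sf9 membrane reagent. Streptavidin microbeads enriched the stained cells before FACS sorting into low and high (top ~1%) gates on anti-HA and streptavidin fluorescence. Each clone's polyreactivity label reflects its gate of origin.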

Sequence | polyreactivity (PSR sort gate)
QVQLVESGGGLVQAGGSLRLSCAASGRTFFPYVMGWYRQAPGKERELVAAISNSGTSTYYADSVKGRFTISRDNAKNTVYLQMNSLKPEDTAVYYCAARRYVGLYYWGQGTQVTVSS | high polyreactivity
QVQLVESGGGLVQAGGSLRLSCAASGRTFFRNAMGWYRQAPGKERELVAAISKRGGSTYYADSVKGRFTISRDNAKNTVYLQMNSLKPEDTAVYYCNADPRTVGLDYWGQGTQVTVSS | high polyreactivity
QVQLVESGGGLVQAGGSLRLSCAASGRTFFSYVMGWYRPAPGKEREFVAAISRSGGNTYYADSVMGRFTISRDNAKNTVYLQMNSLKPEETAVYYCNKPQRILYDYWGHGTQVTVSS | high polyreactivity
QVQLVESGGGLVQAGGSLRLSCAASGRTFFVNTMGWSRQAPGKERELVAAISDSGGSTYADSVKGRFTISRDNAKNTVNLQKNSLKPEDTAVYYCAARRRYPQRFGFDYWGQGTQVTVSS | low polyreactivity
QVQLVESGGGLVQAGGSLRLSCAASGRTFFVYAMGWYRQAPGKERELVASITLSGGSTYYADSVKGRFTISRDNAKNTVYLQMHSLKPEDTAVYYCAKGWSRDNDREREDEYWGQGTQVTVSS | low polyreactivity
QVQLVESGGGLVQAGGSLRLSCAASGRTFFVYAMGWYRQAPGKVRELVAAISNTGGRTYYADSVKGRFTISRDNAKNTVYLQMNSLKPEDTAVYYCAAPYSGPYRSYEYYWGQGTQVTVSS | low polyreactivity
QVQLVESGGGLVQAGGSLRLSCAASGRTFFWYAMGWYRQAPGKERELVAAITYRGGGTYYADSVKGRFTISRDNAKNTVYLQMNSLKPEDTAVYYCAAEYWVGVYLYDYWGQGTQVTVSS | high polyreactivity
QVQLVESGGGLVQAGGSLRLSCAASGRTFFYNAMAWYRQAPGKERESTYYADSVKGRFTISRDNAKNTVYLQMNSLIPEDTAVSYCAAGTAYVAYEGDKGDYCGQGTQVTVSS | low polyreactivity
QVQLVESGGGLVQAGGSLRLSCAASGRTFFYNAMGWYRQAPGKERELVAAISGRGGRTYYADSVKGRFTISRDNAKNTVHLQMNSLKPEDTAVYYCAADAGPLRYDYWGQGTQVTVSS | high polyreactivity
QVQLVESGGGLVQAGGSLRLSCAASGRTFFYNAMGWYRQAPGKERELVAAISSGGGSTYYADSVKGRFTISRDNAKNTVYLQMNSLKPEDTAVYYCNAYKGQTGGGGRYGYWGQGTQVTVSS | high polyreactivity
QVQLVESGGGLVQAGGSLRLSCAASGRTFFYYAMGWYRQAPGKERELVAAISGRGGRTYYADSVKGRFTISRDNAKNTVYLQMNSLKPEDTAVYYCNTRGTRIASGHYYWGQGTQVTVSS | high polyreactivity
QVQLVESGGGLVQAGGSLRLSCAASGRTFGANAMGWYRQAPGKERELVAAISSSDDSTYYADSVKGRFTISRDNAKNTVYLQMNSLKPEDTAVYYCAAEDVYPQLDYWGQGTLVTVSS | low polyreactivity
QVQLVESGGGLVQAGGSLRLSCAASGRTFGAYSMGWYRQAPGKERELVASISRSGGSTYYADSVKGRFTISRDNAKNTVYLQMNSLKPEETAVYYCAARVYRYGAMDYWGQGTQVTVSS | high polyreactivity
QVQLVESGGGLVQAGGSLRLSCAASGRTFGAYTMGWYRQAPGKERELVAAINWSGGDTYYADSVKGRFTISRDNAKNTVYLQMNSLKPEDTAVYYCNAEPRYGTYDYWGQGTQVTVSS | low polyreactivity
QVQLVESGGGLVQAGGSLRLSCAASGRTFGDYAMGWSRQAPGKERELVAAIDVDGGSTYYADSVKGRFTISRDNAKNTVYLQMNSLKPEDTAVYYCNAQAPYWFSFYSDHKYDYWGQGTQVTVSS | low polyreactivity
QVQLVESGGGLVQAGGSLRLSCAASGRTFGDYAMGWYRQAPGKERELVAAISKSGGITYYADSVKGRFTISRDNAKNTVYLQMNSLKPEDTAVYYCNADGSPFYYSGYDYWGQGTQVTVSS | high polyreactivity
QVQLVESGGGLVQAGGSLRLSCAASGRTFGDYAMGWYRQEPGKERELVAGITGRDSTNYADSVKGRFTISRDNAKNTVYLQMNSLIREDTAVYYCNADFWYTDISYGLATYDYWGQGTQVTVSS | high polyreactivity
QVQLVESGGGLVQAGGSLRLSCAASGRTFGGYAMGRYRQAPGKDRQLVASISWSGGSTYYADSVKGRFTISRDNAKNTVYLQMNSLKPEDTAVYYCAARPYLSRSTRMDYWGQGTQVTVSS | low polyreactivity
QVQLVESGGGLVQAGGSLRLSCAASGRTFGGYAMGWYRQAPGKERELVAAIRRSGGSTYYADSVKGRFTISRDNAKNTVYLQMNSLKPEDTAVYYCNVLRFSTGGYRYVYDYDYWGQGTQVTVSS | high polyreactivity
QVQLVESGGGLVQAGGSLRLSCAASGRTFGGYAMGWYRQAPGTERELVAAIRSRGGRTYYADSVKGRFTISRDNAKKSVYLQMNSLKPEDTAVYYCATYGNKWGEDYWGQGTQVTVSS | high polyreactivity
QVQLVESGGGLVQAGGSLRLSCAASGRTFGGYTMGWYRKAPGKERELVAAISKRGGSTYYADSVKGRFTISRDNAKNTVYLQMNSLKPEDTAVYYCARDVRTVIVSTGYDYWGQGTQVTVSS | high polyreactivity
QVQLVESGGGLVQAGGSLRLSCAASGRTFGGYTMGWYRQAPGKERALVAAIRWSGGRTYYADSVKGRFTISRDNAKNTVYLQMNSLKPEDTAVYYCNARYVFPYYWGQGTQVTVSS | high polyreactivity

Sequence | polyreactivity (PSR sort gate)
QVQLVESGGGLVQAGGSLRLSCAASGRTFGGYTMGWYRQAPGKERELVAAITGSGSNTYYADSVKGRFTISRDNAKNTVYLQMNSLKPEDTAVYYCAAPYSYRTWYPYGYWGQGTQVTVSS | high polyreactivity
QVQLVESGGGLVQAGGSLRLSCAASGRTFGIYAMGWYRQAPGKERELVASISWSGGRTYYADSVKGRFTLSRDNAKNTVYLQMNSLKPEDTAVYYCAAYGVYYPRSWQYFDWYGYWGQGTQVTVSS | high polyreactivity
QVQLVESGGGLVQAGGSLRLSCAASGRTFGIYAMGWYRQAPGTERQMVADITSGGDTYYADSVKGRFTISRDNAKNTVYLQMNSLKPEDTAVYYCAADIYPDWIYLLYGYWGQGTQVNVSS | low polyreactivity
QVQLVESGGGLVQAGGSLRLSCAASGRTFGIYTMGWYRQAPGKERKLVAAISKRGSSTYYADSVKGRFTISRDNAKNTVYLQMNSLKPEDTAVYYCNARSWYIRGSQEYYYWGQGTQVTVSS | high polyreactivity
QVQLVESGGGLVQAGGSLRLSCAASGRTFGKNAMGWYRPAPGKERELVAAIRYRTGSTYYADSVKGRFTISRDNAKNTVYLQMNSLKPEDTAVYYCAKVGSSPLYWGQGTHVTVSS | high polyreactivity
QVQLVESGGGLVQAGGSLRLSCAASGRTFGKNAMGWYRQAPGKERELVAAISWSGGRTYYADSVKGRFTISRDNAKNTVYLQMNSLKPEDTAVYYCATASYRNPSDYWGQGTQVTVSS | high polyreactivity
QVQLVESGGGLVQAGGSLRLSCAASGRTFGKYAMGWYRQAPGKERELVAGISSRGGSTYYADSVKGRFTISRDNAKNTVYLQMNSLKPEDTAVYYCAKRPLTSNASQGDYWGQGTQVTVSS | high polyreactivity
QVQLVESGGGLVQAGGSLRLSCAASGRTFGKYAMGWYRQAPGKERELVATISLSGGSTYYADSVKGRFTISRDNAKNTVYLQMNSLKPEDTAVYYCAARVYTYYYDLHKRYYWGQGTQVTVSS | high polyreactivity
QVQLVESGGGLVQAGGSLRLSCAASGRTFGLNAMGWYRQAPGKDRELVAAISSSGGSTYYADSVKGRFTISRDNAKNTVYLQKNSLKPEDTAVYYCAKGLYRYGTAYYYWGQGTQVTVSS | high polyreactivity
QVQLVESGGGLVQAGGSLRLSCAASGRTFGLNAMGWYRQAPGKERELVAAIDWRGVNTYYADSVKGRFTISRDNAKNTVYLQMNSLKPEDTAVYYCNARAYGRYYWGQGTQVTVSS | high polyreactivity
QVQLVESGGGLVQAGGSLRLSCAASGRTFGLYAMGWYRQAPGKETELVAAISSSGGSTYYADSVKGRFTISRDNAKNTVYLQMNSLKPEDTAVYYCAKYRRVGYLYDYWGQGTQVTVSS | high polyreactivity
QVQLVESGGGLVQAGGSLRLSCAASGRTFGNNAMGWYRQAPGKEREFVAAITSRGGSTYYADSVKGRFTISRDNAKNTVYLQINSLKPEDTAVYYCNREYQLPSQRTEHYYWGQGTQVTVSS | low polyreactivity
QVQLVESGGGLVQAGGSLRLSCAASGRTFGNYAMGWYRQAPGKERELVAAISSGRSTNYADSVKRRFTISRDNGKNTVYLQMNSLKPEDTAVYYCNADWGFPDVKETGVRFDYWGQGTQVTVSW | low polyreactivity
QVQLVESGGGLVQAGGSLRLSCAASGRTFGPNGMGWYRQAPGKERELVAAITRRGGSTYYADSVKGRFTISRDNEKNTVYLQMNSLKPEDTAVYYCAAYSSWGGFDYWGQGTQVTVSS | low polyreactivity
QVQLVESGGGLVQAGGSLRLSCAASGRTFGPYAKGWYRQAPGKERELVAAITDTGSGTFYADSVKGRFTISRDNAKNTVYFQMNSLKPEDTAVYYCNAVRKYWGQGTEVTVSS | low polyreactivity
QVQLVESGGGLVQAGGSLRLSCAASGRTFGPYAMGWSRQAPGKERELVAAITWSGGSTYYADSVKGRFTISRDNAKNTVYLQMNSLKPEDTAVYYCAAKFSIWTLKKYYYWGQGTQVTVSS | high polyreactivity
QVQLVESGGGLVQAGGSLRLSCAASGRTFGPYAMGWYRQPPGKEREFVAAISYSGGSTYYADSVKGRLTISRDNAKNTVDLQMNSLKPEVTAVYYCAVDIDANSGTRDYWGQGTQVTVSS | low polyreactivity
QVQLVESGGGLVQAGGSLRLSCAASGRTFGPYSMGWYRQAPGKERELVAAISSSGSTTYYADSVKGRFTISRDNAKNTVYLQMNSLKPEDTAVYYCAKPSSRDSPYDYWGQGSQVTVSS | low polyreactivity
QVQLVESGGGLVQAGGSLRLSCAASGRTFGPYTMGGYIQAPGKEREFVAAIRSRGDTTYYADSVKGRFTISRDNAKNTVYLQMNSLKPEDTAVYYCAARSYFLVAGSRYDYWGQGTQVTVSS | high polyreactivity
QVQLVESGGGLVQAGGSLRLSCAASGRTFGPYTMGWYRQAPGKERELVATIRSDNTYYADSVKGRFTISRDNAKNTVYLQMNSLKPEDTAVYYCNAGYYSRYSYPYKYYYWGQGTQVTVSS | high polyreactivity
QVQLVESGGGLVQAGGSLRLSCAASGRTFGQHAMGWYRQAPGKDRELVASIRSGGITDYADSVKGRFTISRDNAKNTVYLQMNSLKPEDTAVYYCNAEGVWWSTRYDSWGQGTQVTVSS | low polyreactivity
